Experiments:
[1] = molecular target: Neuronal calcium sensor-1 (NCS-1), N-terminal His tag removed with TEV protease (UniProt P62166 1-190); test: other fluorescence titration; intrinsic tryptophan fluorescence of 1 μM NCS-1 (excitation 280 nm, emission 290-410 nm), PQIQ peptide added stepwise; 50 mM Tris pH 7.5, 50 mM NaCl, 5 mM CaCl2; room temperature; logistic fit; triplicate; conditions: both partners purified
[2] = molecular target: Calmodulin (CaM) expressed from pET-15b (UniProt P0DP23 1-149); test: NMR titration; 1H-15N HSQC of [15N]NCS-1 (0.8 mM) with PQIQ peptide, then equimolar unlabelled CaM/Ca2+ added to the preformed complex; 50 mM Tris pH 6.5, 50 mM NaCl, 5 mM CaCl2, 300 K; conditions: both partners purified

Neuronal calcium sensor-1 (NCS-1), N-terminal His tag removed with TEV protease, sequence (P62166 whole entry): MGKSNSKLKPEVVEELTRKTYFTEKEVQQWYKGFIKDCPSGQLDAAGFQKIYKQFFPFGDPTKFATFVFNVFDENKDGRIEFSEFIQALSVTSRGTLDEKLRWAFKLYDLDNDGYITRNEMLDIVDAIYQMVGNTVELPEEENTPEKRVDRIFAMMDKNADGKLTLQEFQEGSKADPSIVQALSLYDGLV

B1: PQIQ peptide, synthetic P/Q peptide corresponding to residues 1903-1929 of the human P/Q receptor (peptide)
peptide: TVGKIYAAMMIMEYYRQSKAKKLQAMR
[1]
  EC50: 1040 ± 70 nM
[2]
  binding result: binds
